Laboratory results published in patent US20210269525A1 (BIOCYTOGEN PHARMACEUTICALS BEIJING, published 2021).
Where two headings read alike, the source gives them in different places.

T1: Cynomolgus CD3 epsilon Protein, His Tag (Acrobiosystems, Cat #CDE-05226) (cynomolgus (Macaca fascicularis), UniProt Q95LI5 22-117)
T1 construct: also called monkey CD3e; not shown: His tag
T1 sequence: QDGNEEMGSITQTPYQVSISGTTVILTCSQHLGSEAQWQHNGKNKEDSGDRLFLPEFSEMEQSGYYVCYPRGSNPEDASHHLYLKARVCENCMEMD


Legend:
[1] = biological target: T2, human CD3e (T-cell surface glycoprotein CD3 epsilon chain) (human, UniProt P07766 23-207); assay: flow cytometry, human PBMC, antibody 10 µg/mL, anti-human IgG Fc-Alexa Fluor647 (1:500), anti-hTcRβ-PerCP (1:30)
T2 construct: Target of the anti-hCD3e antibodies on human PBMC, Jurkat cells and cells expressing human CD3e; on T cells it is part of the CD3/TCR complex; also called hCD3e; CD3e on human PBMC
Procedure: (§1) PBMC cells were collected from a human subject. After being thawed, the cells were cultured for 3-4 hours. The medium was then discarded, and the cells were resuspended in phosphate-buffered saline (PBS). The cell concentration was then adjusted to 2×10⁶/25 μl PBS.
A 96-well plate was prepared. 25 ul of cell suspension was added to each well. Anti-hCD3e antibodies with different combinations of humanized 1B1 heavy chain variants and humanized 1B1 light chain variants were diluted to 20 ug/ml (2×) in PBS, and were added to the 96-well plate. The cells and the antibodies were incubated. After centrifuge, the residues were discarded. The samples were washed again. 25 ul of PBS was then added to each well to resuspend cells.
(§2) Anti-human IgG Fc-Alexa Fluror647 (1:500) and anit-hTcRβ PerCP (1:30) were then added to each well. The cells and the antibodies were incubated and then the cells were washed again by PBS. 300 ul of PBS was then added to each well to resuspend the cells. FACS was performed.

[2] = biological target: T3, Histidine-tagged human CD3e protein (human, UniProt P07766 23-126); assay: SPR (Biacore), human CD3e
T3 construct: also called hCD3e-His; not shown: His tag

[3] = biological target: T2, human CD3e (T-cell surface glycoprotein …); assay: flow cytometry, human PBMC, antibody 0.1 µg/mL, anti-human IgG Fc-Alexa Fluor647 (1:500), anti-hTcRβ-PerCP (1:30)
Procedure: as §1
(§3) A 96-well plate was prepared. 25 ul of cell suspension was added to each well. […] The cells and the antibodies were incubated. After centrifuge, the residues were discarded. The samples were washed again. 25 ul of PBS was then added to each well to resuspend cells.
as §2

[4] = biological target: T2, human CD3e (T-cell surface glycoprotein …); assay: flow cytometry, human PBMC, antibody 1 µg/mL, anti-human IgG Fc-Alexa Fluor647 (1:500), anti-hTcRβ-PerCP (1:30)
Procedure: as §1, §3, §2

[5] = biological target: T4, monkey CD3e (Macaca fascicularis) on PBMC (Macaca fascicularis, UniProt Q95LI5 22-198); assay: flow cytometry, Macaca fascicularis PBMC, antibody concentration not given, anti-human IgG Fc-Alexa Fluor647 (1:500), anti-hTcRβ-PerCP (1:30)
T4 construct: Target on PBMC from Macaca fascicularis; also called mfCD3e; monkey PBMC
Procedure: A 96-well plate was prepared. 25 ul of cell suspension was added to each well. Anti-hCD3 antibodies were added to the 96-well plate. The cells and the antibodies were incubated for 15 minutes at 4° C. 185 ul PBS was then added to each well. After centrifuge at 2000 rpm for 5 minutes, the medium was discarded. The samples were washed again. 25 ul of PBS was then added to resuspend cells.
Anti-human IgG Fc-Alexa Fluror647 (1:500) and anti-hTcRβ PerCP (1:30) were then added to each well. The cells and the antibodies were incubated for 15 minutes at 4° C. 185 ul PBS was then added to each well. After centrifuge, the residues were discarded. The samples were washed again. 25 ul of PBS was then added to resuspend cells. […] In contrast, anti-hTcRβ PerCP cannot bind to monkey PBMC.

[6] = biological target: T2, human CD3e (T-cell surface glycoprotein …); assay: flow cytometry, human PBMC, antibody 0.1 ug/mL, anti-human IgG Fc-Alexa Fluor647 (1:500), anti-hTcRβ-PerCP (1:30)
Procedure: as §1, §3, §2

[7] = biological target: T3, Histidine-tagged human CD3e protein; assay: SPR (Biacore), human CD3e; remark: listed apart in the source
[8] = biological target: T2, human CD3e (T-cell surface glycoprotein …); assay: cell-based or functional assay
[9] = biological target: T1, Cynomolgus CD3 epsilon Protein, His Tag …; assay: SPR (Biacore), cynomolgus CD3e His tag
Procedure: The binding affinity of the anti-hCD3e antibodies with monkey CD3e (Cynomolgus CD3 epsilon Protein (SEQ ID NO: 39 AA Gln 22-Asp 117), His Tag, Acrobiosystems, Cat #CDE-05226) were also measured using surface plasmon resonance (SPR) using Biacore (Biacore, INC, Piscataway N.J.) by the methods as described in the examples.

[10] = biological target: T2, human CD3e (T-cell surface glycoprotein …); assay: flow cytometry, human PBMC, antibody 0.01 ug/mL, anti-human IgG Fc-Alexa Fluor647 (1:500), anti-hTcRβ-PerCP (1:30)
Procedure: as §1, §3, §2

[11] = biological target: T2, human CD3e (T-cell surface glycoprotein …); assay: flow cytometry, human PBMC, antibody 1 ug/mL, anti-human IgG Fc-Alexa Fluor647 (1:500), anti-hTcRβ-PerCP (1:30)
Procedure: as §1, §3, §2

| upper left quadrant, percent of cells AF647+ / hTcRβ-PerCP- [5] [%] | upper right quadrant, percent of cells AF647+ / hTcRβ-PerCP+ [5] [%] | upper left quadrant, percent of cells AF647+ / hTcRβ-PerCP- [6] [%] | upper right quadrant, percent of cells AF647+ / hTcRβ-PerCP+ [6] [%] | Kd [7] [nM] | koff [7] [s⁻¹] | kon [7] [M⁻¹ s⁻¹] | EC50, luciferase of Jurkat-Luc-NFAT cells; antibody from supernatant [8] [µg/mL] | upper left quadrant, percent of cells AF647+ / hTcRβ-PerCP- [10] [%] | upper right quadrant, percent of cells AF647+ / hTcRβ-PerCP+ [10] [%] | upper left quadrant, percent of cells AF647+ / hTcRβ-PerCP- [11] [%] | upper right quadrant, percent of cells AF647+ / hTcRβ-PerCP+ [11] [%] | Binder | other results |
| --- | --- | --- | --- | --- | --- | --- | --- | --- | --- | --- | --- | --- | --- |
| 86.8 | 9.46 |  |  |  |  |  |  |  |  |  |  | 1B1-H3K3-IgG1-LALA (antibody, V domains shown, Humanized; human IgG1 with LALA mutations; also called H3K3 (humanized 1B1)) VH: QVQLVQSGAEVKKPGASVKLSCKASGYTFTSYWMHWVRQRHGQGLEWIGNIYPDSGTTNYGEKFKTRVTLTVDTSTSTAYMELSSLRSEDTAVYYCTRDTSGQYYFDYWGQGTLVTVSS VL: DIVMTQSPDSLAVSAGERVTMNCKSSQSLLNSRTRKNYLAWYQHKPGQSPKLLIYWASTRESGVPDRFSGSGSGTDFTLTISSVQAEDVAVYYCVQSFSLRAFGGGTKLEIK | upper left quadrant, percent of cells AF647+ / hTcRβ-PerCP- [1]: 9.61%; upper right quadrant, percent of cells AF647+ / hTcRβ-PerCP+ [1]: 63.7%; Kd [2]: 0.718 nM; koff [2]: 0.000501 s⁻¹; kon [2]: 698000 M⁻¹ s⁻¹; upper left quadrant, percent of cells AF647+ / hTcRβ-PerCP- [3]: 11.8%; upper right quadrant, percent of cells AF647+ / hTcRβ-PerCP+ [3]: 54.5%; upper left quadrant, percent of cells AF647+ / hTcRβ-PerCP- [4]: 11.6%; upper right quadrant, percent of cells AF647+ / hTcRβ-PerCP+ [4]: 58.1% |
| 44.2 | 3.1 | 8.05 | 53.3 | 1.96 | 0.000134 | 68400 | 0.247 | 2.42 | 11.6 |  |  | 10A4-H2K2-IgG1-LALA (antibody, V domains shown, Humanized; human IgG1 with LALA mutations; also called H2K2 (humanized 10A4)) VH: QVQLVQSGAEVKKPGASVKISCKASGYTFTSYYIHWVRQAPGQRLEFIGWIYPGNVNAKYNEKFKGRATITTDKSASTAYMELSSLRSEDTAVYYCAIKGGNYDWGQGTLVTVSS VL: DVVMTQSPLSLPVTLGQPASISCQSSQSLLDSDGKTYLNWLQQRPGQSPRRLIYLVSKLGSGVPDRFSGSGSGTDFTLKISRVEAEDVGVYYCWQGTHFPRTFGGGTKLEIK | EC50, luciferase of Jurkat-Luc-NFAT cells; purified antibody [8]: 0.263 µg/mL; Kd [9]: 8.21 nM; koff [9]: 0.000411 s⁻¹; kon [9]: 50100 M⁻¹ s⁻¹ |
| 68.5 | 3.45 | 9.91 | 51.2 | 1.31 | 8.91e-05 | 68100 | 0.234 | 2.56 | 12 | 12.4 | 76.8 | 10A4-H4K1-IgG1-LALA (antibody, V domains shown, Humanized; human IgG1 with LALA mutations; also called H4K1 (humanized 10A4)) VH: QVQLQQSGAEVKKPGASVRISCKASGYTFTSYYIHWVRQRPGQGLEFIGWIYPGNVNAKYNEKFKGRATLTTDKSASTAYMELSSLRSEDTAVYFCAIKGGNYDWGQGTLVTVSS VL: DVVMTQSPLSLPVTLGQPASISCQSSQSLLDSDGKTYLNWLQQRPGQSPRRLIYLVSKLGSGVPDRFSGSGSGTDFTLKISRVEAEDVGVYYCWQGTHFPRTFGGGTKVEIK |  |
| 46 | 2.58 | 9.79 | 54.8 | 1.73 | 0.000107 | 62100 | 0.475 | 2.66 | 14 | 14.3 | 74.7 | 10A4-H3K3-IgG1-LALA (antibody, V domains shown, Humanized; human IgG1 with LALA mutations; also called H3K3 (humanized 10A4)) VH: QVQLVQSGAEVKKPGASVKISCKASGYTFTSYYIHWVRQRPGQRLEFIGWIYPGNVNAKYNEKFKGRATLTTDKSASTAYMELSSLRSEDTAVYFCAIKGGNYDWGQGTLVTVSS VL: not shown |  |
| 45.1 | 1.69 | 12.2 | 61.3 | 2.02 | 0.000126 | 62100 | 0.205 | 2.75 | 15.2 | 12.4 | 75.8 | 10A4-H3K2-IgG1-LALA (antibody, V domains shown, Humanized; human IgG1 with LALA mutations; also called H3K2 (humanized 10A4)) VH: QVQLVQSGAEVKKPGASVKISCKASGYTFTSYYIHWVRQRPGQRLEFIGWIYPGNVNAKYNEKFKGRATLTTDKSASTAYMELSSLRSEDTAVYFCAIKGGNYDWGQGTLVTVSS VL: DVVMTQSPLSLPVTLGQPASISCQSSQSLLDSDGKTYLNWLQQRPGQSPRRLIYLVSKLGSGVPDRFSGSGSGTDFTLKISRVEAEDVGVYYCWQGTHFPRTFGGGTKLEIK |  |
| 52 | 2.39 | 10.7 | 55.6 | 2.12 | 0.00014 | 65900 | 0.198 | 2.62 | 12.9 | 14.5 | 75 | 10A4-H3K1-IgG1-LALA (antibody, V domains shown, Humanized; human IgG1 with LALA mutations; also called H3K1 (humanized 10A4)) VH: QVQLVQSGAEVKKPGASVKISCKASGYTFTSYYIHWVRQRPGQRLEFIGWIYPGNVNAKYNEKFKGRATLTTDKSASTAYMELSSLRSEDTAVYFCAIKGGNYDWGQGTLVTVSS VL: DVVMTQSPLSLPVTLGQPASISCQSSQSLLDSDGKTYLNWLQQRPGQSPRRLIYLVSKLGSGVPDRFSGSGSGTDFTLKISRVEAEDVGVYYCWQGTHFPRTFGGGTKVEIK |  |
